Results on 6 molecules are retold here after paper PMC8298264, “Function of cofactor Akirin2 in the regulation of gene expression in model human neutrophil-like HL60 cells” (Bioscience Reports, 2021).

The test system of the experiment is human HL60 cells. The experiment can be described thus: SWATH-MS proteomics, differential protein representation, akirin2 KO vs WT HL60 cells. The format is cell-based. The note with it: akirin2 KO vs WT HL60 cells, sheet "Under-represented in KO". Put shortly:
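Three biological replicates per genotype; 150 µg protein FASP/trypsin digested; IDA library (3 µg digest); SWATH variable windows, 5 µg/sample, 3.6 s cycle; gradient 5–30% B 120 min then 30–60% B 15 min; 1% global FDR; TAS normalization.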

B1: sp¦Q15397¦PUM3_HUMAN (protein, UniProt Q15397 1-648, looked up)
Pumilio homolog 3: MEVKGKKQFTGKSTKTAQEKNRFHKNSDSGSSKTFPTRKVAKEGGPKVTSRNFEKSITKLGKKGVKQFKNKQQGDKSPKNKFQPANKFNKKRKFQPDGRSDESAAKKPKWDDFKKKKKELKQSRQLSDKTNYDIVVRAKQMWEILRRKDCDKEKRVKLMSDLQKLIQGKIKTIAFAHDSTRVIQCYIQYGNEEQRKQAFEELRDDLVELSKAKYSRNIVKKFLMYGSKPQIAEIIRSFKGHVRKMLRHAEASAIVEYAYNDKAILEQRNMLTEELYGNTFQLYKSADHRTLDKVLEVQPEKLELIMDEMKQILTPMAQKEAVIKHSLVHKVFLDFFTYAPPKLRSEMIEAIREAVVYLAHTHDGARVAMHCLWHGTPKDRKVIVKTMKTYVEKVANGQYSHLVLLAAFDCIDDTKLVKQIIISEIISSLPSIVNDKYGRKVLLYLLSPRDPAHTVREIIEVLQKGDGNAHSKKDTEVRRRELLESISPALLSYLQEHAQEVVLDKSACVLVSDILGSATGDVQPTMNAIASLAATGLHPGGKDGELHIAEHPAGHLVLKWLIEQDKKMKENGREGCFAKTLVEHVGMKNLKSWASVNRGAIILSSLLQSCDLEVANKVKAALKSLIPTLEKTKSTSKGIEILLEKLST
B1: under “KO vs WT”, the “Fold Change” value is listed as 0.6182 and the “Log (Fold Change)” value is reported as -0.2089.

B2: sp¦O43592¦XPOT_HUMAN (protein, UniProt O43592 1-962, looked up)
Exportin-T: MDEQALLGLNPNADSDFRQRALAYFEQLKISPDAWQVCAEALAQRTYSDDHVKFFCFQVLEHQVKYKYSELTTVQQQLIRETLISWLQAQMLNPQPEKTFIRNKAAQVFALLFVTEYLTKWPKFFFDILSVVDLNPRGVDLYLRILMAIDSELVDRDVVHTSEEARRNTLIKDTMREQCIPNLVESWYQILQNYQFTNSEVTCQCLEVVGAYVSWIDLSLIANDRFINMLLGHMSIEVLREEACDCLFEVVNKGMDPVDKMKLVESLCQVLQSAGFFSIDQEEDVDFLARFSKLVNGMGQSLIVSWSKLIKNGDIKNAQEALQAIETKVALMLQLLIHEDDDISSNIIGFCYDYLHILKQLTVLSDQQKANVEAIMLAVMKKLTYDEEYNFENEGEDEAMFVEYRKQLKLLLDRLAQVSPELLLASVRRVFSSTLQNWQTTRFMEVEVAIRLLYMLAEALPVSHGAHFSGDVSKASALQDMMRTLVTSGVSSYQHTSVTLEFFETVVRYEKFFTVEPQHIPCVLMAFLDHRGLRHSSAKVRSRTAYLFSRFVKSLNKQMNPFIEDILNRIQDLLELSPPENGHQSLLSSDDQLFIYETAGVLIVNSEYPAERKQALMRNLLTPLMEKFKILLEKLMLAQDEERQASLADCLNHAVGFASRTSKAFSNKQTVKQCGCSEVYLDCLQTFLPALSCPLQKDILRSGVRTFLHRMIICLEEEVLPFIPSASEHMLKDCEAKDLQEFIPLINQITAKFKIQVSPFLQQMFMPLLHAIFEVLLRPAEENDQSAALEKQMLRRSYFAFLQTVTGSGMSEVIANQGAENVERVLVTVIQGAVEYPDPIAQKTCFIILSKLVELWGGKDGPVGFADFVYKHIVPACFLAPLKQTFDLADAQTVLALSECAVTLKTIHLKRGPECVQYLQQEYLPSLQVAPEIIQEFCQALQQPDAKVFKNYLKVFFQRAKP
For B2, for the setting “KO vs WT”, the “Fold Change” value came out at 0.6107 and the “Log (Fold Change)” value is listed as -0.2142.

B3: sp¦Q9UL25¦RAB21_HUMAN (protein, UniProt Q9UL25 2-222, looked up)
Ras-related protein Rab-21: AAAGGGGGGAAAAGRAYSFKVVLLGEGCVGKTSLVLRYCENKFNDKHITTLQASFLTKKLNIGGKRVNLAIWDTAGQERFHALGPIYYRDSNGAILVYDITDEDSFQKVKNWVKELRKMLGNEICLCIVGNKIDLEKERHVSIQEAESYAESVGAKHYHTSAKQNKGIEELFLDLCKRMIETAQVDERAKGNGSSQPGTARRGVQIIDDEPQAQTSGGGCC
For the molecule B3, under “KO vs WT”, the “Fold Change” value stood at 0.6117 and the “Log (Fold Change)” value was -0.2135.

B4: sp¦Q8N5K1¦CISD2_HUMAN (protein, UniProt Q8N5K1 2-135, looked up)
CDGSH iron-sulfur …: VLESVARIVKVQLPAYLKRLPVPESITGFARLTVSEWLRLLPFLGVLALLGYLAVRPFLPKKKQQKDSLINLKIQKENPKVVNEINIEDLCLTKAAYCRCWRSKTFPACDGSHNKHNELTGDNVGPLILKKKEV
With B4, for the setting “KO vs WT”, the “Fold Change” value is 0.6126 and the “Log (Fold Change)” value is -0.2128.

B5: sp¦Q14683¦SMC1A_HUMAN (protein, UniProt Q14683 1-1233, looked up)
Structural maintenance of …: MGFLKLIEIENFKSYKGRQIIGPFQRFTAIIGPNGSGKSNLMDAISFVLGEKTSNLRVKTLRDLIHGAPVGKPAANRAFVSMVYSEEGAEDRTFARVIVGGSSEYKINNKVVQLHEYSEELEKLGILIKARNFLVFQGAVESIAMKNPKERTALFEEISRSGELAQEYDKRKKEMVKAEEDTQFNYHRKKNIAAERKEAKQEKEEADRYQRLKDEVVRAQVQLQLFKLYHNEVEIEKLNKELASKNKEIEKDKKRMDKVEDELKEKKKELGKMMREQQQIEKEIKEKDSELNQKRPQYIKAKENTSHKIKKLEAAKKSLQNAQKHYKKRKGDMDELEKEMLSVEKARQEFEERMEEESQSQGRDLTLEENQVKKYHRLKEEASKRAATLAQELEKFNRDQKADQDRLDLEERKKVETEAKIKQKLREIEENQKRIEKLEEYITTSKQSLEEQKKLEGELTEEVEMAKRRIDEINKELNQVMEQLGDARIDRQESSRQQRKAEIMESIKRLYPGSVYGRLIDLCQPTQKKYQIAVTKVLGKNMDAIIVDSEKTGRDCIQYIKEQRGEPETFLPLDYLEVKPTDEKLRELKGAKLVIDVIRYEPPHIKKALQYACGNALVCDNVEDARRIAFGGHQRHKTVALDGTLFQKSGVISGGASDLKAKARRWDEKAVDKLKEKKERLTEELKEQMKAKRKEAELRQVQSQAHGLQMRLKYSQSDLEQTKTRHLALNLQEKSKLESELANFGPRINDIKRIIQSREREMKDLKEKMNQVEDEVFEEFCREIGVRNIREFEEEKVKRQNEIAKKRLEFENQKTRLGIQLDFEKNQLKEDQDKVHMWEQTVKKDENEIEKLKKEEQRHMKIIDETMAQLQDLKNQHLAKKSEVNDKNHEMEEIRKKLGGANKEMTHLQKEVTAIETKLEQKRSDRHNLLQACKMQDIKLPLSKGTMDDISQEEGSSQGEDSVSGSQRISSIYAREALIEIDYGDLCEDLKDAQAEEEIKQEMNTLQQKLNEQQSVLQRIAAPNMKAMEKLESVRDKFQETSDEFEAARKRAKKAKQAFEQIKKERFDRFNACFESVATNIDEIYKALSRNSSAQAFLGPENPEEPYLDGINYNCVAPGKRFRPMDNLSGGEKTVAALALLFAIHSYKPAPFFVLDEIDAALDNTNIGKVANYIKEQSTCNFQAIVISLKEEFYTKAESLIGVYPEQGDCVISKVLTFDLTKYPDANPNPNEQ
Regarding B5, the “Fold Change” value worked out at 0.2754 and the “Log (Fold Change)” value is -0.5601.

B6: sp¦P35908¦K22E_HUMAN (protein, UniProt P35908 1-639, looked up)
Keratin, type II cytoskeletal …: MSCQISCKSRGRGGGGGGFRGFSSGSAVVSGGSRRSTSSFSCLSRHGGGGGGFGGGGFGSRSLVGLGGTKSISISVAGGGGGFGAAGGFGGRGGGFGGGSSFGGGSGFSGGGFGGGGFGGGRFGGFGGPGGVGGLGGPGGFGPGGYPGGIHEVSVNQSLLQPLNVKVDPEIQNVKAQEREQIKTLNNKFASFIDKVRFLEQQNQVLQTKWELLQQMNVGTRPINLEPIFQGYIDSLKRYLDGLTAERTSQNSELNNMQDLVEDYKKKYEDEINKRTAAENDFVTLKKDVDNAYMIKVELQSKVDLLNQEIEFLKVLYDAEISQIHQSVTDTNVILSMDNSRNLDLDSIIAEVKAQYEEIAQRSKEEAEALYHSKYEELQVTVGRHGDSLKEIKIEISELNRVIQRLQGEIAHVKKQCKNVQDAIADAEQRGEHALKDARNKLNDLEEALQQAKEDLARLLRDYQELMNVKLALDVEIATYRKLLEGEECRMSGDLSSNVTVSVTSSTISSNVASKAAFGGSGGRGSSSGGGYSSGSSSYGSGGRQSGSRGGSGGGGSISGGGYGSGGGSGGRYGSGGGSKGGSISGGGYGSGGGKHSSGGGSRGGSSSGGGYGSGGGGSSSVKGSSGEAFGSSVTFSFR
Consider B6, for which, under “KO vs WT”, the “Fold Change” value was found to be 0.6196 and the “Log (Fold Change)” value was -0.2079.
